From US20130209454A1

Columns and labels:
[1] = target: Env of HIV-1 strain SC422661.8 (HIV-1); experiment: cell-based or functional assay
[2] = target: Env of HIV-1 strain CAP45.2.00.G3 (HIV-1); experiment: cell-based or functional assay
[3] = target: Env of HIV-1 strain Du172.17 (HIV-1); experiment: cell-based or functional assay
[4] = target: Env of HIV-1 strain AC10.0.29 (HIV-1); experiment: cell-based or functional assay
[5] = target: Env of HIV-1 strain CAP210.2.00.E8 (HIV-1); experiment: cell-based or functional assay
[6] = target: Env of HIV-1 strain TRO.11 (HIV-1); experiment: cell-based or functional assay
[7] = target: HIV-1 strain CAP210.2.00.E8 envelope (gp120) (HIV-1); experiment: cell-based or functional assay
[8] = target: HIV-1 strain AC10.0.29 envelope (gp120) (HIV-1); experiment: cell-based or functional assay
[9] = target: HIV-1 strain TRO.11 envelope (gp120) (HIV-1); experiment: cell-based or functional assay
[10] = target: HIV-1 strain Du172.17 envelope (gp120) (HIV-1); experiment: cell-based or functional assay
[11] = target: HIV-1 strain CAP45.2.00.G3 envelope (gp120) (HIV-1); experiment: cell-based or functional assay
[12] = target: HIV-1 strain SC422661.8 envelope (gp120) (HIV-1); experiment: cell-based or functional assay
[13] = target: gp120 (ZM135M.PL10a) of the CD4-gp120 complex structure (HIV-1); experiment: CD4-gp120 complex structure, AreaIMol, 1.4 Å probe
[14] = target: Q259.d2.17 gp120 core (HIV-1)
[15] = target: CAP244.2.00.D3 gp120 core (HIV-1)
[16] = target: 93TH057 gp120 core (HIV-1)
[17] = target: HIV-1 Env of strain QH0692.42 (HIV-1); experiment: cell-based or functional assay
[18] = target: HIV-1 Env of strain ZM214M.PL15 (HIV-1); experiment: cell-based or functional assay
[19] = target: HIV-1 Env of strain AC10.0.29 (HIV-1); experiment: cell-based or functional assay
[20] = target: HIV-1 Env of strain SC422661.8 (HIV-1); experiment: cell-based or functional assay
[21] = target: HIV-1 Env of strain CAP45.2.00.G3 (HIV-1); experiment: cell-based or functional assay
[22] = target: HIV-1 Env of strain T257-31 (HIV-1); experiment: cell-based or functional assay
[23] = target: HIV-1 Env of strain TRO.11 (HIV-1); experiment: cell-based or functional assay
[24] = target: 93TH057 gp120 core (HIV-1); experiment: structure PDB 3NGB, AreaIMol, 1.4 Å probe
[25] = target: HIV-1 strain QH0692.42 envelope (gp120) (HIV-1); experiment: cell-based or functional assay
[26] = target: HIV-1 Env of strain 3016.v5.c45 (HIV-1); experiment: cell-based or functional assay
[27] = target: HIV-1 Env of strain C2101.c01 (HIV-1); experiment: cell-based or functional assay
[28] = target: HIV-1 strain T257-31 envelope (gp120) (HIV-1); experiment: cell-based or functional assay
[29] = target: HIV-1 strain ZM214M.PL15 envelope (gp120) (HIV-1); experiment: cell-based or functional assay

NIH45-46 Fab (C-terminal 6x-His tagged heavy chain, SPR), sequence (VH): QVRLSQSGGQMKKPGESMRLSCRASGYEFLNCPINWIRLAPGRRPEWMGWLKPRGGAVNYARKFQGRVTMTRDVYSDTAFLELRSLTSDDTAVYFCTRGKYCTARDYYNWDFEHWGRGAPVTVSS
NIH45-46 Fab (C-terminal 6x-His tagged heavy chain, SPR), sequence (V domain): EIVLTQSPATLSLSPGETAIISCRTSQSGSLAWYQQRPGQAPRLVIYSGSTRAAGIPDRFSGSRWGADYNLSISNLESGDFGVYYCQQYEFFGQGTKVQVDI

Substance | IC50 [1] [µg/mL] | IC50 [2] [µg/mL] | IC50 [3] [µg/mL] | IC50 [4] [µg/mL] | IC50 [5] [µg/mL] | IC50 [6] [µg/mL] | further results
3BNC60 T54A (antibody) | 0.027 | > 50 | > 50 | 2.6 | 0.1 | 0.003 | –
3BNC60 T54D (antibody) | 0.556 | > 50 | > 50 | > 50 | > 50 | 0.036 | –
3BNC60 T54E (antibody) | 0.075 | > 50 | > 50 | 2.92 | > 50 | 0.004 | –
3BNC60 T54F (antibody) | 0.025 | – | 2.2 | – | 3.4 | 0.023 | –
3BNC60 T54G (antibody) | 0.01 | > 50 | 0.02 | 0.623 | 11.9 | 0.0003 | –
3BNC60 T54H (antibody) | 0.003 | 6.64 | 0.055 | > 50 | 1.6 | 0.011 | –
3BNC60 T54I (antibody) | 0.054 | > 50 | 21.8 | > 50 | > 50 | 0.027 | –
3BNC60 T54K (antibody) | 0.024 | > 50 | > 50 | > 50 | > 50 | 0.029 | –
3BNC60 T54L (antibody) | 0.034 | > 50 | 3.59 | > 50 | 30.7 | 0.019 | –
3BNC60 T54M (antibody) | 0.032 | > 50 | 1.43 | > 50 | 25 | 0.019 | –
3BNC60 T54N (antibody) | 0.025 | 16.7 | 0.662 | > 50 | 16.3 | 0.008 | –
3BNC60 T54P (antibody) | 0.143 | > 50 | > 50 | > 50 | > 50 | 0.048 | –
3BNC60 T54Q (antibody) | 0.038 | 6.66 | 0.243 | 9.04 | 7.4 | 0.006 | –
3BNC60 T54R (antibody) | 0.014 | > 50 | 2.15 | > 50 | 5 | 0.006 | –
3BNC60 T54S (antibody) | 0.036 | 41.7 | 0.92 | > 50 | 14.7 | 0.02 | –
3BNC60 T54V (antibody) | 0.039 | > 50 | 7.36 | > 50 | 42.8 | 0.024 | –
3BNC60 T54W (antibody) | 0.031 | – | 2.2 | – | 2.6 | 0.021 | –
3BNC60 T54W IgG (antibody) | – | – | – | – | – | – | neutralization IC50 [7]: 5 µg/mL; neutralization IC50 [8]: 3.1 µg/mL; neutralization IC50 [9]: 0.06 µg/mL; neutralization IC50 [10]: 0.04 µg/mL; neutralization IC50 [11]: 19 µg/mL; neutralization IC50 [12]: 0.1 µg/mL
3BNC60 T54Y (antibody) | 0.02 | – | 2.2 | – | 2.9 | 0.012 | –
3BNC117 T54W IgG (antibody) | – | – | – | – | – | – | neutralization IC50 [7]: 2.8 µg/mL; neutralization IC50 [8]: 2.8 µg/mL; neutralization IC50 [9]: 0.6 µg/mL; neutralization IC50 [10]: 0.9 µg/mL; neutralization IC50 [11]: 23 µg/mL; neutralization IC50 [12]: 0.07 µg/mL
CD4 (from UniProt P01730 26-208) (receptor) | – | – | – | – | – | – | buried surface area on gp120, Inner domain & bridging sheet [13]: 400 Å^2; buried surface area on gp120, Loop D + NAG [13]: 136 Å^2; buried surface area on gp120, Outer domain exit loop [13]: 97 Å^2; buried surface area on gp120, V5 [13]: 155 Å^2; buried surface area on gp120, β-15/α-3 + NAG [13]: 263 Å^2; buried surface area on gp120, β-24 [13]: 14 Å^2; buried surface area, Interface on Fab or CD4 [13]: 1060 Å^2; buried surface area, Total gp120 [13]: 973 Å^2
NIH45-46 Fab (C-terminal 6x-His tagged heavy chain, SPR) | – | – | – | – | – | – | Kd [14]: 190 nM; koff [14]: 0.01 s⁻¹; kon [14]: 55000 M⁻¹ s⁻¹; Kd [15]: 97 nM; koff [15]: 0.0067 s⁻¹; kon [15]: 69000 M⁻¹ s⁻¹; Kd [16]: 160 nM; koff [16]: 0.0048 s⁻¹; kon [16]: 31000 M⁻¹ s⁻¹
NIH45-46 Y99dA IgG (antibody) | – | – | – | – | – | – | neutralization IC50 [17]: 2.1 µg/mL; neutralization IC50 [18]: 1.1 µg/mL; neutralization IC50 [19]: 4.4 µg/mL; neutralization IC50 [20]: 0.08 µg/mL; neutralization IC50 [21]: > 50 µg/mL; neutralization IC50 [22]: 2.4 µg/mL; neutralization IC50 [23]: > 50 µg/mL
VRC01 Fab (structure of VRC01-93TH057, PDB code 3NGB) | – | – | – | – | – | – | buried surface area on gp120, Inner domain & bridging sheet [24]: 157 Å^2; buried surface area on gp120, Loop D + NAG [24]: 433 Å^2; buried surface area on gp120, Outer domain exit loop [24]: 57 Å^2; buried surface area on gp120, V5 [24]: 328 Å^2; buried surface area on gp120, β-15/α-3 + NAG [24]: 208 Å^2; buried surface area on gp120, β-24 [24]: 43 Å^2; buried surface area, Interface on Fab or CD4 [24]: 1210 Å^2; buried surface area, Total gp120 [24]: 1220 Å^2; total buried surface area, light chain with gp120 [24]: 681 Å^2; buried surface area, CDR3 ([24]; VRC01 heavy chain): 117 Å^2; buried surface area, Interface on gp120 ([24]; VRC01 heavy chain): 882 Å^2; buried surface area, Total Fab ([24]; VRC01 heavy chain): 892 Å^2; buried surface area, CDR3 ([24]; VRC01 light chain): 165 Å^2; buried surface area, Interface on gp120 ([24]; VRC01 light chain): 367 Å^2; buried surface area, Total Fab ([24]; VRC01 light chain): 314 Å^2
VRC01 IgG (antibody) | – | – | – | – | – | – | neutralization IC50 [8]: 0.8 µg/mL; neutralization IC50 [25]: 0.7 µg/mL; neutralization IC50 [26]: 0.16 µg/mL; neutralization IC50 [27]: 0.36 µg/mL; neutralization IC50 [28]: 1 µg/mL; neutralization IC50 [9]: 0.5 µg/mL; neutralization IC50 [11]: 1.8 µg/mL; neutralization IC50 [29]: 0.8 µg/mL; neutralization IC50 [12]: 0.2 µg/mL
VRC01 heavy chain paired with the NIH45-46 light chain (IgG) (antibody) | – | – | – | – | – | – | neutralization IC50 [8]: 4.5 µg/mL; neutralization IC50 [25]: 1.2 µg/mL; neutralization IC50 [28]: 15 µg/mL; neutralization IC50 [9]: 24 µg/mL; neutralization IC50 [11]: > 50 µg/mL; neutralization IC50 [29]: 1.8 µg/mL; neutralization IC50 [12]: 0.4 µg/mL
